Patent publication US20220411483A1 (Chugai, published 2022)

T1: human FcγRIIa R type extracellular domain with C-terminal His tag (human, UniProt P12318 34-217)
T1 construct: extracellular domain; also called FcgRIIaR
T1 sequence (looked up): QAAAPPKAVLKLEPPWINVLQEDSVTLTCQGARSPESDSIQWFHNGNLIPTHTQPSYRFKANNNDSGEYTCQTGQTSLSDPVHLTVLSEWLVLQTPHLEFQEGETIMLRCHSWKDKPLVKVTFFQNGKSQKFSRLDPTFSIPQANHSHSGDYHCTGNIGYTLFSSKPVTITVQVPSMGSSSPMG

T2: human FcγRIIb extracellular domain with C-terminal His tag (human, UniProt P31994 43-217)
T2 construct: extracellular domain; also called FcgRIIb
T2 sequence (looked up): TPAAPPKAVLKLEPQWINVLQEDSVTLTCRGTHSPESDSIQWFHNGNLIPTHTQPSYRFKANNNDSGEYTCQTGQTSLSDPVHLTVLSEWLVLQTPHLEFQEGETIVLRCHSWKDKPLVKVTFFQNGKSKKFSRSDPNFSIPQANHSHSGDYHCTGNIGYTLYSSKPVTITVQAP

T3: human FcγRIIa H type extracellular domain with C-terminal His tag (human, UniProt P12318 34-217)
T3 construct: extracellular domain; also called FcgRIIaH
T3 sequence (looked up): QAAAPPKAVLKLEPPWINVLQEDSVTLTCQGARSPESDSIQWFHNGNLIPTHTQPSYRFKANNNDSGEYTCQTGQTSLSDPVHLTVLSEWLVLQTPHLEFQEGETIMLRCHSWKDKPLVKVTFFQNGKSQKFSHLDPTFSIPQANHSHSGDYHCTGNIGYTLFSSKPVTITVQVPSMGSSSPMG


Experiments:
[1] = biological target: T4, human FcγRIa extracellular domain with C-terminal His tag (human, UniProt P12314 16-292); assay: SPR, antibody captured, FcgR analyte
T4 construct: Whole entry named; also called FcgRIa

[2] = biological target: T1, human FcγRIIa R type extracellular …; assay: SPR, antibody captured, FcgR analyte
[3] = biological target: T2, human FcγRIIb extracellular domain with …; assay: SPR, antibody captured, FcgR analyte
[4] = biological target: T5, human FcγRIIIa V type extracellular domain with C-terminal His tag (human, UniProt P08637 17-208); assay: SPR, KD of IL6R-G1d/IL6R-L divided by KD of variant
T5 construct: extracellular domain; also called FcgRIIIaV

[5] = biological target: T4, human FcγRIa extracellular domain with …; assay: as above
[6] = biological target: T1, human FcγRIIa R type extracellular …; assay: as above
[7] = biological target: T3, human FcγRIIa H type extracellular …; assay: as above
[8] = biological target: T2, human FcγRIIb extracellular domain with …; assay: as above

T4 sequence (P12314 16-292): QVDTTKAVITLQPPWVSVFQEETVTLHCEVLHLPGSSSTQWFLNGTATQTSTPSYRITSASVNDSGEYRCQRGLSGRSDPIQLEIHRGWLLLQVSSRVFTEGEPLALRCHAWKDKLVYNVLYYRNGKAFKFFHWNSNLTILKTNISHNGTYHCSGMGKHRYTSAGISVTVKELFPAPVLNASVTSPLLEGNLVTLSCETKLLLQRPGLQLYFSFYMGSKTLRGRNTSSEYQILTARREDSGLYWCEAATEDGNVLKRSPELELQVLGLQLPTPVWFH
T5 sequence (P08637 17-208 F176V): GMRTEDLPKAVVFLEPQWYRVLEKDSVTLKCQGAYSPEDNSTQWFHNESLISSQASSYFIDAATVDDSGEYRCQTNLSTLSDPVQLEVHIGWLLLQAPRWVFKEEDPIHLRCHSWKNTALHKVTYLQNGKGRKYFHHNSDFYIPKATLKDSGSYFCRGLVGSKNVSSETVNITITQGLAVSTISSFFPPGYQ

| Kd [1] | Kd [2] | Kd [3] | Relative FcgRIIIaV-binding Activity [4] | Relative FcgRIa-binding Activity [5] | Relative FcgRIIaR-binding Activity [6] | Relative FcgRIIaH-binding Activity [7] | Relative FcgRIIb-binding Activity [8] | Binder |
| --- | --- | --- | --- | --- | --- | --- | --- | --- |
| 1.1 nM | 2000 nM | 88 nM | 0.012 | 0.291 | 0.55 | 0.008 | 23.9 | IL6R-P774/IL6R-L (antibody, human IgG1, kappa) heavy: QVQLQESGPGLVKPSETLSLTCAVSGHSISHDHAWSWVRQPPGEGLEWIGFISYSGITNYNPSLQGRVTISRDNSKNTLYLQMNSLRAEDTAVYYCARSLARTTAMDYWGEGTLVTVSSASTKGPSVFPLAPSSKSTSGGTAALGCLVKDYFPEPVTVSWNSGALTSGVHTFPAVLQSSGLYSLSSVVTVPSSSLGTQTYICNVNHKPSNTKVDKKVEPKSCDKTHTCPPCPAPELLGGDSVFLFPPKPKDTLMISRTPEVTCVVVDVAEEDGEVKFNWYVDGVEVHNAKTKPREEQYNSTYRVVSVLTVLHQDWLNGKEYKCEVSNKALPAPIEKTISKAKGQPREPQVYTLPPSRDELTKNQVSLTCLVKGFYPSDIAVEWESNGQPENNYKTTPPVLDSDGSFFLYSKLTVDKSRWQQGNVFSCSVMHEALHNHYTQKSLSLSP light: not shown |
| 5.2 nM | 4000 nM | 280 nM | 0.01 | 0.062 | 0.28 | 0.006 | 7.5 | IL6R-P776/IL6R-L (antibody, human IgG1, kappa) heavy: QVQLQESGPGLVKPSETLSLTCAVSGHSISHDHAWSWVRQPPGEGLEWIGFISYSGITNYNPSLQGRVTISRDNSKNTLYLQMNSLRAEDTAVYYCARSLARTTAMDYWGEGTLVTVSSASTKGPSVFPLAPSSKSTSGGTAALGCLVKDYFPEPVTVSWNSGALTSGVHTFPAVLQSSGLYSLSSVVTVPSSSLGTQTYICNVNHKPSNTKVDKKVEPKSCDKTHTCPPCPAPELLGGDSVFLFPPKPKDTLMISRTPEVTCVVVDVSHEDGEVKFNWYVDGVEVHNAKTKPREEQYNSTYRVVSVLTVLHQDWLNGKEYKCEVSNKALPAPIEKTISKAKGQPREPQVYTLPPSRDELTKNQVSLTCLVKGFYPSDIAVEWESNGQPENNYKTTPPVLDSDGSFFLYSKLTVDKSRWQQGNVFSCSVMHEALHNHYTQKSLSLSP light: not shown |
| 8.6 nM | 5400 nM | 400 nM | 0.007 | 0.037 | 0.2 | 0.005 | 5.3 | IL6R-P775/IL6R-L (antibody, human IgG1, kappa) heavy: QVQLQESGPGLVKPSETLSLTCAVSGHSISHDHAWSWVRQPPGEGLEWIGFISYSGITNYNPSLQGRVTISRDNSKNTLYLQMNSLRAEDTAVYYCARSLARTTAMDYWGEGTLVTVSSASTKGPSVFPLAPSSKSTSGGTAALGCLVKDYFPEPVTVSWNSGALTSGVHTFPAVLQSSGLYSLSSVVTVPSSSLGTQTYICNVNHKPSNTKVDKKVEPKSCDKTHTCPPCPAPELLGGDSVFLFPPKPKDTLMISRTPEVTCVVVDVSHEDGEVKFNWYVDGVEVHNAKTKPREEQYNSTYRVVSVLTVLHQDWLNGKEYKCAVSNKALPAPIEKTISKAKGQPREPQVYTLPPSRDELTKNQVSLTCLVKGFYPSDIAVEWESNGQPENNYKTTPPVLDSDGSFFLYSKLTVDKSRWQQGNVFSCSVMHEALHNHYTQKSLSLSP light: not shown |

The next lines start with the binder.

| Binder | Kd [1] | Kd [2] | Kd [3] | Relative FcgRIIIaV-binding Activity [4] | Relative FcgRIa-binding Activity [5] | Relative FcgRIIaR-binding Activity [6] | Relative FcgRIIaH-binding Activity [7] | Relative FcgRIIb-binding Activity [8] |
| --- | --- | --- | --- | --- | --- | --- | --- | --- |
| IL6R-P769/IL6R-L (antibody, human IgG1, kappa) heavy: QVQLQESGPGLVKPSETLSLTCAVSGHSISHDHAWSWVRQPPGEGLEWIGFISYSGITNYNPSLQGRVTISRDNSKNTLYLQMNSLRAEDTAVYYCARSLARTTAMDYWGEGTLVTVSSASTKGPSVFPLAPSSKSTSGGTAALGCLVKDYFPEPVTVSWNSGALTSGVHTFPAVLQSSGLYSLSSVVTVPSSSLGTQTYICNVNHKPSNTKVDKKVEPKSCDKTHTCPPCPAPELLGGDSVFLFPPKPKDTLMISRTPEVTCVVIDVSHEDGEVKFNWYVDGVEVHNAKTKPREEQYNSTYRVVSVLTVLHQDWLNGKEYKCKVSNKALPAPIEKTISKAKGQPREPQVYTLPPSRDELTKNQVSLTCLVKGFYPSDIAVEWESNGQPENNYKTTPPVLDSDGSFFLYSKLTVDKSRWQQGNVFSCSVMHEALHNHYTQKSLSLSP light: not shown | 12 nM | 2900 nM | 74 nM | 0.006 | 0.027 | 0.38 | 0.007 | 28.4 |
| IL6R-P773/IL6R-L (antibody, human IgG1, kappa) heavy: QVQLQESGPGLVKPSETLSLTCAVSGHSISHDHAWSWVRQPPGEGLEWIGFISYSGITNYNPSLQGRVTISRDNSKNTLYLQMNSLRAEDTAVYYCARSLARTTAMDYWGEGTLVTVSSASTKGPSVFPLAPSSKSTSGGTAALGCLVKDYFPEPVTVSWNSGALTSGVHTFPAVLQSSGLYSLSSVVTVPSSSLGTQTYICNVNHKPSNTKVDKKVEPKSCDKTHTCPPCPAPELLGGDSVFLFPPKPKDTLMISRTPEVTCVVVDVAEEDGEVKFNWYVDGVEVHNAKTKPREEQYNSTYRVVSVLTVLHQDWLNGKEYKCAVSNKALPAPIEKTISKAKGQPREPQVYTLPPSRDELTKNQVSLTCLVKGFYPSDIAVEWESNGQPENNYKTTPPVLDSDGSFFLYSKLTVDKSRWQQGNVFSCSVMHEALHNHYTQKSLSLSP light: not shown | 2.1 nM | 2700 nM | 140 nM | 0.009 | 0.152 | 0.41 | 0.006 | 15 |
| IL6R-P771/IL6R-L (antibody, human IgG1, kappa) heavy: QVQLQESGPGLVKPSETLSLTCAVSGHSISHDHAWSWVRQPPGEGLEWIGFISYSGITNYNPSLQGRVTISRDNSKNTLYLQMNSLRAEDTAVYYCARSLARTTAMDYWGEGTLVTVSSASTKGPSVFPLAPSSKSTSGGTAALGCLVKDYFPEPVTVSWNSGALTSGVHTFPAVLQSSGLYSLSSVVTVPSSSLGTQTYICNVNHKPSNTKVDKKVEPKSCDKTHTCPPCPAPELLGGDSVFLFPPKPKDTLMISRTPEVTCVVIDVSHEDGEVKFNWYVDGVEVHNAKTKPREEQYNSTYRVVSVLTVLHQDWLNGKEYKCAVSNKALPAPIEKTISKAKGQPREPQVYTLPPSRDELTKNQVSLTCLVKGFYPSDIAVEWESNGQPENNYKTTPPVLDSDGSFFLYSKLTVDKSRWQQGNVFSCSVMHEALHNHYTQKSLSLSP light: not shown | 14 nM | 4300 nM | 140 nM | 0.01 | 0.023 | 0.26 | 0.007 | 15 |
| IL6R-P770/IL6R-L (antibody, human IgG1, kappa) heavy: QVQLQESGPGLVKPSETLSLTCAVSGHSISHDHAWSWVRQPPGEGLEWIGFISYSGITNYNPSLQGRVTISRDNSKNTLYLQMNSLRAEDTAVYYCARSLARTTAMDYWGEGTLVTVSSASTKGPSVFPLAPSSKSTSGGTAALGCLVKDYFPEPVTVSWNSGALTSGVHTFPAVLQSSGLYSLSSVVTVPSSSLGTQTYICNVNHKPSNTKVDKKVEPKSCDKTHTCPPCPAPELLGGDSVFLFPPKPKDTLMISRTPEVTCVVIDVSHEDGEVKFNWYVDGVEVHNAKTKPREEQYNSTYRVVSVLTVLHQDWLNGKEYKCKVSNKGLPSSIEKTISKAKGQPREPQVYTLPPSRDELTKNQVSLTCLVKGFYPSDIAVEWESNGQPENNYKTTPPVLDSDGSFFLYSKLTVDKSRWQQGNVFSCSVMHEALHNHYTQKSLSLSP light: not shown | 15 nM | 3400 nM | 170 nM | 0.007 | 0.021 | 0.32 | 0.006 | 12.4 |
| IL6R-P772/IL6R-L (antibody, human IgG1, kappa) heavy: QVQLQESGPGLVKPSETLSLTCAVSGHSISHDHAWSWVRQPPGEGLEWIGFISYSGITNYNPSLQGRVTISRDNSKNTLYLQMNSLRAEDTAVYYCARSLARTTAMDYWGEGTLVTVSSASTKGPSVFPLAPSSKSTSGGTAALGCLVKDYFPEPVTVSWNSGALTSGVHTFPAVLQSSGLYSLSSVVTVPSSSLGTQTYICNVNHKPSNTKVDKKVEPKSCDKTHTCPPCPAPELLGGDSVFLFPPKPKDTLMISRTPEVTCVVIDVSHEDGEVKFNWYVDGVEVHNAKTKPREEQYNSTYRVVSVLTVLHQDWLNGKEYKCEVSNKALPAPIEKTISKAKGQPREPQVYTLPPSRDELTKNQVSLTCLVKGFYPSDIAVEWESNGQPENNYKTTPPVLDSDGSFFLYSKLTVDKSRWQQGNVFSCSVMHEALHNHYTQKSLSLSP light: not shown | 9.1 nM | 3100 nM | 97 nM | 0.006 | 0.035 | 0.35 | 0.006 | 21.6 |
